Data on one substance can be found in patent publication US10278923B2, “Oral dosing of GLP-1 compounds” (Novo Nordisk A/S, priority 2013, dated 2019).

Where two headings read alike, the source gives them in different places.

Series [1] can be described thus: Pharmacokinetic study: variability in plasma concentration (% CV) after p.o. administration of SNAC tablet to humans. The following applies: for % CV AUC / % CV Cmax: p.o. tablet with 300 mg SNAC. In kind it is in vivo. The method, then: The variability in plasma concentration was determined as % CV for both Cmax and AUC.
The conditions of series [2]: dog, in vivo. The procedure: The other monoclonal antibody, specific for an N-terminal epitope, was biotinylated. […] Illumination of the complex releases singlet oxygen atoms from the donor beads which channels into the acceptor beads and trigger chemiluminescence which was measured in the EnVision plate reader.
The LC-MS system consisted of Waters Acquity UPLC system (Waters) consisting of an autosampler (Model Acq-SM), pump (Model Acq-BSM), column oven (Model Acq-SM), detector (Model Acq-TUV) and LTQ Orbitrap XL (Thermo Fisher). RP-HPLC separation was achieved using a linear gradient of acetonitrile in 0.1% formic acid using CSH C18 column (Waters, 1×150 mm) with a flow rate of 0.1 ml/min at 45° C.
A pharmacokinetic study was carried out to determine plasma half-life of the GLP-1 peptides after p.o. administration to Beagle dogs.
Dogs were administered p.o. GLP-1 peptide 1 in a SNAC formulation. Blood samples were drawn at predefined time points after dosing, and samples were analysed for concentration of the GLP-1 peptide. […] The variability in plasma concentration of the GLP-1 peptide was determined as % CV for AUC. […]
Blood samples were drawn at predefined time points after dosing, and samples were analysed for concentration of the GLP-1 peptide. […] The variability in plasma concentration of the GLP-1 peptide was determined as % CV for AUC. […]

Where [3] appears, read: 10 mg, single dose, healthy subjects.
[4] abbreviates: 10 mg/day for 70 days, healthy subjects, Day 70.
Where [5] appears, read: 20 mg/day for 70 days, healthy subjects, Day 69.
The mark [6] stands for this setting: 40 mg/day for 70 days, healthy subjects, Day 69.
The mark [7] stands for this setting: 40 mg/day for 70 days, subjects with type 2 diabetes, Day 69.

Regarding “N-epsilon26-[2-(2-{2-[2-(2-{2-[(S)-4-Carboxy-4-(17-carboxyheptadecanoyl-amino)butyrylamino]ethoxy}ethoxy)acetylamino]ethoxy}ethoxy)acetyl][Aib8,Arg34]GLP-1-(7-37) [GLP-1 peptide 1]”, the “variability in plasma exposure, daily dosing compared to single dose” value in series [1] (humans, 10, 20 or 40 mg daily for 70 days vs single dose of 10 mg) is reported as “significantly reduced”; in series [2] it was “significantly reduced”. Further, the “% CV AUC” value in series [1] (setting [3]) was 105%; in series [1] (setting [4]), 73% (Day 70); in series [1] (setting [5]), 67% (Day 69); in series [1] (setting [6]), 78% (Day 69); in series [1] (setting [7]), 55% (Day 69); in series [2] (po, 300 mg), 67%. The “% CV Cmax” value is recorded as 113% in series [1] (setting [3]); 74% (Day 70) in series [1] (setting [4]); 62% (Day 69) in series [1] (setting [5]); 80% (Day 69) in series [1] (setting [6]); 54% (Day 69) in series [1] (setting [7]).
